Target: CD16a ectodomain (Human CD16a, amino acids Met1-Gln208, C-terminal His-tag) (human)
Experiment: BLI

## SARS-CoV-2 ORF8 (aa16-121), His Tag (from UniProt P0DTC8 16-121) (natural protein)
  Kd: 38.9 nM

Source: article PMC9230529
